Measured values as given in patent US7037663B2, “Human zona pellucida protein 3 and uses thereof” (Eastern Virginia Medical School, priority 1998, dated 2006).
Where “and” joins values, the source holds several entries; their conditions need not be identical. Identical values can stand only once.

Columns and labels:
human sperm [1] = experiment: Acrosome reaction of capacitated sperm by FITC/PSA with Hoechst 33258 viability stain, first series; assay type: cell-based
Experimental: The purified rhZP3 was also applied to test its activity to induce human sperm acrosome reaction. The motile sperm obtained by swim-up procedure were allowed to capacitate in HTF/0.5% HSA for four hours at 37° C. in 5% CO2 in huminified air. The motile sperm concentration used to detect acrosome reaction was set at 2 million/ml. A series of 100 ul of capacitated sperm aliquots with different inducers were prepared in Eppendorf vials and cultured in the incubator in 95% air, 5% CO2, at 37° C. for 30 minutes. The test was conducted as follows: positive control: calcium ionophore A23187 (Sigma) at 5 μM; negative controls: 1) sperm culture medium alone, and 2) protein isolated from the culture media of non-transfected PA-1 cells (NT); test: rhZP3. Triple slides were made for each assay. Hoechst 33258 stain was used for determination of sperm viability. Fluorescein isothiocyanate conjugated Pisum sativum agglutinin (FITC/PSA) (Sigma) staining technique was employed to evaluate the acrosome reaction (Cross et al, 1986). Blind reading was required for evaluation and at least 100˜200 cells from 5 random fields were evaluated per spot on the slide. […] The results were expressed as percentage of acrosome-reacted spermatozoa in the total population counted (Cross, 1986).
In some experiments, Solubilized zona pellucida were used as control to test its function to induce sperm acrosome reaction. The solubilized zona pellucida were prepared according to Franken et al (1996). Ooplasma was removed using a small glass micropipette. A vigorous pipetting action would break their zona causing ooplasma to be spilled into surrounding medium. The chosen amount of zonae was transferred into an eppendorf tube and was centrifuged for 15 minutes at 300×g. Using a steromicroscope, the media were removed with pipette, making sure not to disturb zona. The final result was to remove maximum medium. A chosen volume (depending on the zona concentration needed) of 10 mM HCl was added. Under the microscopic vision, zona/HCl was pipetted up and down until all zona were dissolved. Then 10 mM NaOH of equal volume as the HCl was added and mixed well to obtain the stock zona solution.

human sperm [2] = experiment: Acrosome reaction of live sperm by FITC-PSA, second series; assay type: cell-based
Experimental: Determination of the acrosome reaction—The proportion of live acrosome-reacted spermatozoa incubated under capacitating conditions was determined with the fluorescent probe fluorescein isothiocyanate-labeled Pisum Sativum Agglutinin (FITC-PSA, Sigma) after staining with a supravital stain (Hoechst 33258, Sigma) following established techniques (12,13). At least 200 sperm per sample were evaluated in duplicate at 600× magnification using an epifluorescence microscope equipped with phase-contrast optics (Optiphot; Nikon, Melville, N.Y.). Slides were coded and read in a blind fashion.
A calcium ionophore agent (A23187, Sigma) tested at 5 μM and human acid solubilized zona pellucida tested at a final concentration of 4 zona/10 μl were used as positive controls (20). In further experiments, the acrosomal status was assessed by transmission electron microscopy. Spermatozoa were fixed by mixing sperm suspensions with equal volumes of 2% (v/v) glutaraldehyde (in 3 mM CaCl2 and 0.1 M sodium cacodylate); thereafter, samples were dehydrated twice and prepared for thin sectioning using previously published procedures. Ultrastructural examination was performed with a transmission electron microscope (Jeol JEM-1200 EX II, Peabody, Mass.).
Experiment 2: Characterization of the acrosome reaction inducing activity of the rhZP3 in dose- and sperm capacitation-dependency studies—Motile sperm fractions from 29 ejaculates of 11 different donors were incubated under capacitating conditions for 3 hours and assayed for acrosome reaction using FITC-PSA. Following swim-up, sperm aliquots were pre-incubated for 30 minutes with rhZP3 (30 ng/ml), A23187 (positive control), culture medium from non-transfected PA-cells (NT) or sperm culture medium (negative controls). This was the initially selected dose of rhZP3 to be tested as it had proven to effect significant inhibition of sperm-zona binding in the HZA.
The dose-dependent effect of rhZP3 on acrosome reaction was examined in the swim-up fractions obtained from four different donors. The fractions were capacitated for 3 hours and exposed for 30 min to rhZP3 at final concentrations of 0, 7.5, 15, 30, 60, 120, 240, 480, 960 and 1920 ng/ml. The capacitation-dependency of the acrosome reaction-inducing activity of rhZP3 was assessed in the swim-up fractions of four ejaculates from four different donors. Capacitation times included: 0 (immediately post-swim-up), 1, 4, 8, 12 and 24 hours. After the capacitation period, rhZP3 was added to the sperm suspension at a final concentration of 30 ng/ml.
In another set of experiments, three different ejaculates were used to compare the effects of the rhZP3 (tested at 500 ng/ml) with those of solubilized zonae pellucidae and the calcium ionophore. Further, the induction of the acrosome reaction was assessed in parallel with FITC-PSA and transmission electron microscopy. The goal of these studies was to compare the morphological features of the acrosome reaction between agonists and also between the agonist-induced and basal exocytosis rates.

[3] = Isoelectric focusing electrophoresis; assay type: physicochemical; settings: ampholytes pH 3-10 and pH 4-8
Experimental: For further biochemical analysis, isoelectric focusing electrophoresis was performed. Approximately five microgram of recombinant ZP3 was loaded into an isoelectrophoresis tube with ampholytes (pH 3-10) in a wide range, and ampholytes (pH 4-8) in a narrow range. The same amount protein sample isolated from the PA-1 cells without transfected with hZP3 cDNA was used as a control.

[4] = tested on: sperm-zona pellucida binding; settings: Dong et al 2000; cited from earlier work
human sperm [5] = settings: Dong et al 2000; cited from earlier work
[6] = Aggregation of purified glycoprotein on freezing; assay type: physicochemical; settings: freezing the purified product
Source text: In the zona pellucida, ZP3 associates with ZP2 and ZP1 to form a network structure (Wassarman, 1988). This network structure prevents aggregation of these glycoproteins. However, in solution these glycoproteins tend to aggregate together. This phenomenon has been observed in several recombinant glycoproteins, including ZP3 (Champan and Barratt, 1997). In purifying rhZP3, we have avoided this problem by obtaining a highly purified product, and testing its biological activities within a week-period while maintaining the protein at 4° C. […] This problem becomes worse as larger amounts of the glycoprotein are trying to be produced. Different strategies are being looked into in order to produce and purify large amounts of biologically active rhZP3 in our laboratory.

B1: rhZP3: recombinant human zona pellucida protein 3 with six-histidine tail, expressed in human ovarian PA-1 cells; secreted glycoprotein of approximately 65 Kd (protein)
chain: QPLWLLQGGASHPETSVQPVLVECQEATLMVMVSKDLFGTGKLIRAADLTLGPEACEPLVSMDTEDVVRFEVGLHECGNSMQVTDDALVYSTFLLHDPRPVGNLSIVRTNRAEIPIECRYPRQGNVSSQAILPTWLPFRTTVFSEEKLTFSLRLMEENWNAEKRSPTFHLGDAAHLQAEIHTGSHVPLRLFVDHCVATPTPDQNASPYHTIVDFHGCLVDGLTDASSAFKVPRPGPDTLQFTVDVFHFANDSRNMIYITCHLKVTLAEQDPDELNKACSFSKPSNSWFPVEGSADICQCCNKGDCGTPSHSRRQPHVMSQWSRSASRNHHHHHH
Human sperm [1]; 30 ng/ml, 30 minutes pre-incubation
  increase of the percentage of acrosome-reacted sperm from control conditions: 150%
Human sperm [1]; NT 30 ng/ml, calcium ionophore 5 μM, rhZP3 30 ng/ml, solubilized zona 0.5 ZP/μl, 4 h capacitation, 30 min, mean (± SEM)
  % acrosome reacted-sperm: 18.3%
Human sperm [2]
  concentration of highest acrosome reaction-inducing activity: 0.5 to 2 µg/mL
  concentration range of highest stimulation (maximal effects) of acrosome reaction: 500-2,000 ng/ml
Human sperm [2]; 0.5-2 μg/ml versus 15-20 μg/ml
  potency relative to CHO cell product: at least 10 times
Human sperm [2]; 3 h capacitation, 30 min exposure
  minimally effective dose, induction of the acrosome reaction: 30 ng/mL
Human sperm [2]; in the range of 500-2,000 ng/ml
  highest stimulation of acrosome reaction, increase from baseline conditions: approximately 210%
Human sperm [2]; rhZP3 30 ng/ml
  capacitation time of maximal stimulation of acrosome reaction: 8 to 10 h
Human sperm [2]; rhZP3 30 ng/ml, A23187 5 μM, 3 h capacitation, 30 min exposure
  live, acrosome reacted sperm: 19±4.1%
Human sperm [2]; rhZP3 500 ng/ml, solubilized zona 4 zona/10 μl, A23187 5 μM
  induction of the acrosome reaction: 28.2±5.6%
[3]
  isoelectric point (PI): 4.60±0.05 and ~5.60
[3]; listed as recombinant human ZP3
  isoelectric point (PI): 4.6±0.05
sperm
  sperm motion parameters, treatment versus control: not significantly different
[4]
  range of maximal effect, ligand activity: 30-1,000 ng/ml
Human sperm [5]
  range of maximal effect, acrosome reaction-inducing activity: 30-1,000 ng/ml
[6]
  aggregation on freezing (in words): problems of aggregation of the glycoprotein as we attempted freezing the product
